# Assay: soluble fraction after stress (log2 fold change); higher = more stays soluble; pooled small domains, quantitative proteomics
# Details: stress: pH 4
# Method in brief: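 Aggregation propensity here comes from the fold change in the soluble amount of each small protein domain after acid stress, measured in pooled custom libraries by high-throughput quantitative proteomics. The acid stress was pH 4. On the log2 scale, higher values mean more of the domain stayed soluble.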
row,Sequence,soluble fraction (log2)
1,HMAADWTAIKLAYVNGGMSMRELAQRFHVGAAGLMKRAAKEGWEAERQQNSAKVSNAAQMLIN,0.125
2,HMAAEEAFPGGRIVQNAEENRLQILFDEIPGEDVRAALKSHGFRWSPKNKAWQRQLTQNAEYDARRILGI,-0.033
3,HMAAEELTVDKILTAQSFGVTAEAILAKVNDPANTVATLTQADVDRLRAAGVPEGVVTALQARAPQ,-0.155
4,HMAAENAVGARVKALREAMDLSLRDLSERSGVSPTMLSQVERGSTSPTLAVAEKIAAGLDLSLSQLLRL,0.124
5,HMAAGADEATTVPNVSGDTLNQAIKSLKAEGLGYMLSGAGARVRDQMPEPGAEMTKGSVVMLYMDGDAEVD,0.399
6,HMAAGVESLTEKEFAVASLVGGGASNREIAERLAMSERTVKSHLSSIFRKMDVRDRVQLALAMND,-0.0425
7,HMAAIPATVDEETYRRLKPMLKQYGILYHEFKPLRSGKKGAVELIFMEKDLALVQELLSRLKKEK,-0.0159
8,HMAAIPEQVSEEVVSAVKASGIDPGKVTKEQWTSLLKGRRTALGSSSGKLFMLSKAPVGYTLKAVNA,-0.000834
9,HMAAMDMFVKLDALDAELTEQLKALPAEPDDARVERGLALLTDYDHRIKALLTEIFGGENDFDKVL,-2.25
10,HMAAPPPLSDYRNMQEAEHIRNILLQHHGNVRRAAAALELSRPYLYQKMKQLGINIAELRELSLSHSS,0.161
11,HMAASEAESIRILLSEGVDRVHLRKPQSAEADMRRLIEALPPELYPRLTLQDHLHLAGEYGT,-0.162
12,HMAATGPLTPREAEIARLAAGHLSNRQIAEQLVVSERTVENHLYRIFIKLAVTGRDDLAAALAATEQ,-1.17
13,HMAATNVKVPDLKGWDYNNAVGKYGDKLSFVKKSIYSDSVSKGIIIYNARVGETVAQGTTIEVTVSLGPKG,0.0127
14,HMAAVPYQVKITTEDLRIRTGPGTNHDFTGQYTGKGVFTIVEESEGSGAPIWGRLKSGAGWIGIDPSWSVR,-0.524
15,HMADAGQTTAATELKQAPNAGSATISQLSAGQTLQIGTRQGAWYQVKTPQGEGWVRMLSVRLQ,0.0688
16,HMADEGFRQTVLAVLARWESKIHHGQYNALKAKVMNGNWSSFVKQVVKFQGKFIHPDAAKELLGLFG,-1.17
17,HMADFIKEIKTNNPRQLLKSILSSFMPRALILELEMLLWNDLKSKPIGEWSNTQIENVGKLLNNWILKPAA,0.164
18,HMADIWDLLRSEYKLTETDVRMLTDMLPDELMNDFRSEVLALRDRMNRYKVNNPKSYVVTSLKNFIIQHTP,-0.787
19,HMADKNIIGVLSAADNLGKVRITTANGEKYIITVPDGLSDIVKTYWEEEVSVKYVIEKRRKILVDIDG,-0.47
20,HMADLIIMSSDATEKQVDKVINKIKNMGFNVNISKGTEKTIIGIIGDTRGISDEVFKIMPGVIEVISILRD,-0.38
21,HMADLIVFTTDANKEKKVDDETYFYLDVVSDGKLVENYELTEKQYNYIKDLGVGEYVYNEKGKLDSYTAFT,-1.12
22,HMADPLQLLEQQRQDYIQAVTEYLNSHPNAKPIWDVMKKDAGYGDMKLTDIPLGILKKLYITLT,-0.137
23,HMADRVFGHIPGVAVGSIFPDRRSLSQTGVHRPTQAGISGNKTDGADSIVVSGGYRDDRDYGDLIIYTG,-0.746
24,HMADTFVMPDLVYRRYEPVRGYFERGGFHMGAVKFEPYEGISDGTILRQNPLPGHPLRRRDVISLVVAAS,-0.464
25,HMADYYETLGVERTASEEDIKRAYRKMSRKYHPDIAGPEFEEKFKEVNTAYEVLSDPDKRRMYDAGVDPND,0.0648

row,Sequence,soluble fraction (log2)
1,HMADYYSILGLTKNATDIEIKSAFRKLAKIYHPDKNPDPNARVLFEHILKAYDTLINPHSRRRYDSL,0.22
2,HMAEELELFHRLISVTGVGPKGALGFLSQLKPQEIILAILSDDVKTLSKAPGVGRKTAQRVILELKDKF,-0.828
3,HMAEGPYSGKKVEKYPGGMEKRETMYSEGKLTRVTEFHQSGQKKMEVKVDANGQWKRLYWDNNGNPT,-0.086
4,HMAEIIVHEINRHLGESDEPVEFPEERREEAVAELLKNFHNDDAFRKMDDGKYEVALDGEAVREAARSLLA,-0.256
5,HMAELTTVQAADILHVSRPFLIKLLDEGQIPYHRVGKHRRIRMEDVMNYKRAIDQQREAVLDQLVAEA,0.014
6,HMAEMLQDVLNMLSAKDREILVRYYYYYESVKQVAAEMQMSESAVKMRMSRARKKMQQELIDKG,-0.704
7,HMAEPAEDLLSLEGMDKGLAYQLASNGVVTREDLAELATDDLLEIREMDAEQAAALIMKAREHWFEAEQQ,-1.94
8,HMAEPEALLAMAQRILGEEVAQSLFQGAAREQGKEGYLPDPTPAFLDALEARLSGSVGAATAHAMISQLVG,-0.473
9,HMAEPSTSYTQFMDQAKEGKIKRVDVQGRTLTVTPTEGATYKITAPGDLWMVEDLRKAGVQVYGQP,0.076
10,HMAEPYDERKVMEQMIPKGKNTIVAHLGHLKDHGETGYLQEALSYLRERESELGFDLKEVRALVHN,-0.223
11,HMAEQVLHQKLAARRKELNSLVAQVARVRGIPHSHVHSGLRREAGGPPLAQATTDQVEARISLARKWLRA,-0.000969
12,HMAERLQARIDAPGVRLDKALAETFPTLSRARLQALLADGAVTRDGQTVSNGSAKAQPGLYVVALPPVA,0.316
13,HMAESNQIQLSDVREALNMIGPASWLDLVHYLDTGKGRGGQRLRRMLKSLSRSGEIELVARGTYQITDN,-0.742
14,HMAEVALFVNGSDVNLRSGPGQESTRVIGSLNLGDEVRIKSQNGQWREVYVPKTRQVGWVAHWLLSEAPP,-0.527
15,HMAEVPDLRNKTQQEAEAELTNHNLKLGNVTEEYSATVEAGRVISQSTSYGTKVLEGSSVDITISKGPEPT,0.156
16,HMAEWLFDARKIPDEVMNYLRRIAVQAIEEKHYSPELVADLLGISRSSIYDWLNWYRNGGEEDLDTRKA,-0.543
17,HMAFAQMAQEAAKGKDDFNDLRQEMEAVIKEQPHILLMAQFGQNPYEIAYQEAKRRKAQDQQQQQ,-0.805
18,HMAFGTGTVTASSLRVREDASTSAATLDTLSKGSKVSVLADEQDGFYKVQIGEQVGYMSAEYLDVTE,-0.269
19,HMAFKNGLLQTSKKVTLVRKVDGVTMRFDSLRAASVFLGRNKGYLSNVIKNGRTLDNYEIVVGE,0.0346
20,HMAFRIGGFVQEGSVVRQQDGGTVRFEVTDTAHSVPVTYKGSLPDLFKEGKGVVAQGKLMNGTFVADQVLA,-0.186
21,HMAGATDTVRNLLERQIREGELLPGQRLPTEPELAARLGVSRNSLREALQSLEDSGLIVKRHGIGTFVTE,0.22
22,HMAGLELVVTREQAGRTVKSLLRGELGISTALMGRLKRTGTGLTVNGTRVFTNAVLREGDRLAVDLDAAE,-0.0613
23,HMAGLKERLFYFIEYKGLTVQSFEKTVGLSNGAVSKMGDNTRRSTIDKISNFFGDLNKNWLLTGEGEMLI,-0.638
24,HMAGRKMMVMANNLSVRKSANSLSEKLADLSRGDTVEYISSTNGWNKVRYKGQIGYVSSYYLKDTGEEVE,0.216
25,HMAGTKRAENIEIQKLTEVLEARLDSVGFFWPDHKAESMIMTLRNMISRLPLTEADVRVFHGIIKSLADK,-0.727
